In publication PMC10840515:
pIC50: −log10 of the molar value. Like-named read-outs stand apart in the source and are kept apart here.

How the values were obtained:
[1] = target: HLA-DR1 (HLA-DRA*0101, HLA-DRB1*0101) (human); test: ELISA
[2] = target: HLA-DR1 (HLA-DRA*0101, HLA-DRB1*0101) (human); test: ELISA; remark: listed apart in the source

| Substance | pIC50 [1] | pIC50 [2] |
| --- | --- | --- |
| SARS-CoV-2 Spike peptide S486-505 (Omicron BA.1) | 6.12 |  |
| SARS-CoV-2 Spike peptide S761-775 (Wuhan HU-1) |  | < 5.00 |
| SARS-CoV-2 Spike peptide S761-775 (Omicron BA.1) | 5.17 |  |
